Experimental findings from the Human Domainome abundance scans (Beltran et al. 2025) are described below.

B1: Zinc finger homeobox protein 3, residues 2147 to 2202; numbered along this chain, Q15911 (parent)
chain: RPRTRITDDQLRVLRQYFDINNSPSEEQIKEMADKSGLPQKVIKHWFRNTLFKERQ

± gives the uncertainty stated by the source.

Variants of B1 are the subject of the data set. Nature of the data set: abundance fitness (aPCA) (normalised: wild type 0, dead -1); higher = more abundant; growth selection in yeast, the domain comes from the species named. As to conditions: Homo sapiens.
As for RPRTRITDDQLRVLRQYFDINNSPSEEQIKEMADKSGLPQKVIKHWFRNTMFKERQ [L51M], the abundance fitness turned out to be 0.047 ± 0.12.

As for RPRTRITDDQLRVLRQYFDINNSPSEEQIKEMADKSGLPQKVIKHWFRNTFFKERQ [L51F], the abundance fitness is -0.214 ± 0.13.

Take RPRTRITDDQLRVLRQYFDINNSPSEEQIKEMADKSGLPQKVIKHWFRNTTFKERQ [L51T]: the abundance fitness is -0.059 ± 0.096.

Turning to RPRTRITDDQLRVLRQYFDINNSPSEEQIKEMADKSGLPQKVIKHWFRNTCFKERQ [L51C], the abundance fitness is -0.088 ± 0.11.

RPRTRITDDQLRVLRQYFDINNSPSEEQIKEMADKSGLPQKVIKHWFRNTVFKERQ [L51V]: the abundance fitness was -0.119 ± 0.077.

Consider RPRTRITDDQLRVLRQYFDINNSPSEEQIKEMADKSGLPQKVIKHWFRNTRFKERQ [L51R], for which the abundance fitness is -0.013 ± 0.07.

Regarding RPRTRITDDQLRVLRQYFDINNSPSEEQIKEMADKSGLPQKVIKHWFRNTIFKERQ [L51I], the abundance fitness is -0.232 ± 0.14.

Turning to RPRTRITDDQLRVLRQYFDINNSPSEEQIKEMADKSGLPQKVIKHWFRNTKFKERQ [L51K], the abundance fitness turned out to be 0.244 ± 0.13.

On to RPRTRITDDQLRVLRQYFDINNSPSEEQIKEMADKSGLPQKVIKHWFRNTGFKERQ [L51G], for which the abundance fitness was -0.073 ± 0.07.

As for RPRTRITDDQLRVLRQYFDINNSPSEEQIKEMADKSGLPQKVIKHWFRNTEFKERQ [L51E], the abundance fitness is -0.116 ± 0.1.

Regarding RPRTRITDDQLRVLRQYFDINNSPSEEQIKEMADKSGLPQKVIKHWFRNTHFKERQ [L51H], the abundance fitness worked out at 0.016 ± 0.13.

In the case of RPRTRITDDQLRVLRQYFDINNSPSEEQIKEMADKSGLPQKVIKHWFRNTAFKERQ [L51A], the abundance fitness is -0.037 ± 0.076.

Turning to RPRTRITDDQLRVLRQYFDINNSPSEEQIKEMADKSGLPQKVIKHWFRNTYFKERQ [L51Y], the abundance fitness was -0.007 ± 0.21.

RPRTRITDDQLRVLRQYFDINNSPSEEQIKEMADKSGLPQKVIKHWFRNTQFKERQ [L51Q]: the abundance fitness was determined as 0.044 ± 0.11.

On to RPRTRITDDQLRVLRQYFDINNSPSEEQIKEMADKSGLPQKVIKHWFRNTPFKERQ [L51P], for which the abundance fitness is -0.224 ± 0.11.

In the case of RPRTRITDDQLRVLRQYFDINNSPSEEQIKEMADKSGLPQKVIKHWFRNTWFKERQ [L51W], the abundance fitness was -0.34 ± 0.086.

Turning to RPRTRITDDQLRVLRQYFDINNSPSEEQIKEMADKSGLPQKVIKHWFRNTSFKERQ [L51S], the abundance fitness was found to be 0.015 ± 0.083.

Consider RPRTRITDDQLRVLRQYFDINNSPSEEQIKEMADKSGLPQKVIKHWFRNTNFKERQ [L51N], for which the abundance fitness was -0.014 ± 0.14.

On to RPRTRITDDQLRVLRQYFDINNSPSEEQIKEMADKSGLPQKVIKHWFRMTLFKERQ [N49M], for which the abundance fitness is -0.093 ± 0.13.

Turning to RPRTRITDDQLRVLRQYFDINNSPSEEQIKEMADKSGLPQKVIKHWFRTTLFKERQ [N49T], the abundance fitness is -0.039 ± 0.12.

Turning to RPRTRITDDQLRVLRQYFDINNSPSEEQIKEMADKSGLPQKVIKHWFRYTLFKERQ [N49Y], the abundance fitness was -0.145 ± 0.19.

Regarding RPRTRITDDQLRVLRQYFDINNSPSEEQIKEMADKSGLPQKVIKHWFRPTLFKERQ [N49P], the abundance fitness was -0.65 ± 0.19.

For RPRTRITDDQLRVLRQYFDINNSPSEEQIKEMADKSGLPQKVIKHWFRFTLFKERQ [N49F], the abundance fitness was -0.194 ± 0.16.

RPRTRITDDQLRVLRQYFDINNSPSEEQIKEMADKSGLPQKVIKHWFRRTLFKERQ [N49R]: the abundance fitness came out at 0.02 ± 0.086.

Turning to RPRTRITDDQLRVLRQYFDINNSPSEEQIKEMADKSGLPQKVIKHWFRHTLFKERQ [N49H], the abundance fitness was -0.451 ± 0.29.

In the case of RPRTRITDDQLRVLRQYFDINNSPSEEQIKEMADKSGLPQKVIKHWFRQTLFKERQ [N49Q], the abundance fitness is -0.075 ± 0.15.

For the variant RPRTRITDDQLRVLRQYFDINNSPSEEQIKEMADKSGLPQKVIKHWFRVTLFKERQ [N49V], the abundance fitness is -0.053 ± 0.1.

On to RPRTRITDDQLRVLRQYFDINNSPSEEQIKEMADKSGLPQKVIKHWFRKTLFKERQ [N49K], for which the abundance fitness was 0.06 ± 0.13.

As to RPRTRITDDQLRVLRQYFDINNSPSEEQIKEMADKSGLPQKVIKHWFRATLFKERQ [N49A], the abundance fitness is -0.061 ± 0.11.

With RPRTRITDDQLRVLRQYFDINNSPSEEQIKEMADKSGLPQKVIKHWFRCTLFKERQ [N49C], the abundance fitness stood at 0.082 ± 0.13.

As to RPRTRITDDQLRVLRQYFDINNSPSEEQIKEMADKSGLPQKVIKHWFRLTLFKERQ [N49L], the abundance fitness was -0.117 ± 0.098.

In the case of RPRTRITDDQLRVLRQYFDINNSPSEEQIKEMADKSGLPQKVIKHWFRGTLFKERQ [N49G], the abundance fitness is -0.124 ± 0.096.

In the case of RPRTRITDDQLRVLRQYFDINNSPSEEQIKEMADKSGLPQKVIKHWFRSTLFKERQ [N49S], the abundance fitness was -0.06 ± 0.11.

Turning to RPRTRITDDQLRVLRQYFDINNSPSEEQIKEMADKSGLPQKVIKHWFRWTLFKERQ [N49W], the abundance fitness was -0.014 ± 0.15.

RPRTRITDDQLRVLRQYFDINNSPSEEQIKEMADKSGLPQKVIKHWFRDTLFKERQ [N49D]: the abundance fitness is 0.001 ± 0.15.

As for RPRTRITDDQLRVLRQYFDINNSPSEEQIKEMADKSGLPQKVIKHWFRITLFKERQ [N49I], the abundance fitness was -0.236 ± 0.17.

Take RPRTRITDDQLRVLRQYFDINNSPSEEQIKEMADKSGLPQKVIKHWFRETLFKERQ [N49E]: the abundance fitness amounted to 0.153 ± 0.16.

For RPRTRITDDQLRVLRQYFDINNSPSEEQIKEMADKSGLPQKVIKHWFRNQLFKERQ [T50Q], the abundance fitness was -0.16 ± 0.19.

As to RPRTRITDDQLRVLRQYFDINNSPSEEQIKEMADKSGLPQKVIKHWFRNELFKERQ [T50E], the abundance fitness is -0.047 ± 0.12.

RPRTRITDDQLRVLRQYFDINNSPSEEQIKEMADKSGLPQKVIKHWFRNILFKERQ [T50I]: the abundance fitness was -0.262 ± 0.15.

Consider RPRTRITDDQLRVLRQYFDINNSPSEEQIKEMADKSGLPQKVIKHWFRNFLFKERQ [T50F], for which the abundance fitness was -0.341 ± 0.2.

For RPRTRITDDQLRVLRQYFDINNSPSEEQIKEMADKSGLPQKVIKHWFRNLLFKERQ [T50L], the abundance fitness was -0.17 ± 0.11.

Turning to RPRTRITDDQLRVLRQYFDINNSPSEEQIKEMADKSGLPQKVIKHWFRNNLFKERQ [T50N], the abundance fitness was -0.044 ± 0.15.

In the case of RPRTRITDDQLRVLRQYFDINNSPSEEQIKEMADKSGLPQKVIKHWFRNHLFKERQ [T50H], the abundance fitness was -0.048 ± 0.2.

With RPRTRITDDQLRVLRQYFDINNSPSEEQIKEMADKSGLPQKVIKHWFRNRLFKERQ [T50R], the abundance fitness was -0.068 ± 0.096.

As to RPRTRITDDQLRVLRQYFDINNSPSEEQIKEMADKSGLPQKVIKHWFRNCLFKERQ [T50C], the abundance fitness was -0.314 ± 0.17.

Regarding RPRTRITDDQLRVLRQYFDINNSPSEEQIKEMADKSGLPQKVIKHWFRNSLFKERQ [T50S], the abundance fitness is -0.016 ± 0.12.
